This is an account of results in patent publication US20060024287A1 (published 2006).

Data set [1] has as its target T1, recombinant human full-length TrpRS (SY variant) with C-terminal His6-tag.
T1 chain: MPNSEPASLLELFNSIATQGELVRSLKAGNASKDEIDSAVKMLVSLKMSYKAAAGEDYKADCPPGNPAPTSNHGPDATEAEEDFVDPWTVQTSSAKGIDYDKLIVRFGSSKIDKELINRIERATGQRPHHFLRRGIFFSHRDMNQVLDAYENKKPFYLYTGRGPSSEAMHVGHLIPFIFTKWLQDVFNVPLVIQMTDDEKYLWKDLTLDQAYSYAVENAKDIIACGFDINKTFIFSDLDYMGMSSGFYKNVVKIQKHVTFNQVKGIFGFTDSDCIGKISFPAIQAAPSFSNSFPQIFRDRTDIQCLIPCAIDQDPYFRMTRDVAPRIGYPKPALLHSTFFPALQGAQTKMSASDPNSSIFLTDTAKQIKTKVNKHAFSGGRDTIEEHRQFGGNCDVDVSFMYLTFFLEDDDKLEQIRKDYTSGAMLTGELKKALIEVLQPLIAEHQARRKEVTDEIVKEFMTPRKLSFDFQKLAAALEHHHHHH

Data set [2] deals with the molecule itself. The data set is described as follows: SDS-PAGE, unheated against heated samples; band at roughly 86 kDa disappears on heating, band at roughly 43 kD remains.

B1: PMN elastase (protein)
chain: IVGGRRARPHAWPFMVSLQLRGGHFCGATLIAPNFVMSAAHCVANVNVRAVRVVLGAHNLSRREPTRQVFAVQRIFENGYDPVNLLNDIVILQLNGSATINANVQVAQLPAQGRRLGNGVQCLAMGWGLLGRNRGIASVLQELNVTVVTSLCRRSNVCTLVRGRQAGVCFGDSGSPLVCNGLIHGIASFVRGGCASGLYPDAFAPVAQFVNWIDSIIQ
With B1, the “cleavage seen on 12.5% SDS-polyacrylamide gels” value in data set [1] was “cleavage of full-length TrpRS (SY variant) by PMN elastase generated a major fragment of about 46 kDa (SEQ ID NO: 25) and a minor fragment of about 43.5 kDa (SEQ ID NO: 24)”.

B2: T2-TrpRS (SY variant, without 6-His tag) produced by E. coli expression of the vector of SEQ ID NO: 70 (pAS-001) (other)
chain: SAKGIDYDKLIVRFGSSKIDKELINRIERATGQRPHHFLRRGIFFSHRDMNQVLDAYENKKPFYLYTGRGPSSEAMHVGHLIPFIFTKWLQDVFNVPLVIQMTDDEKYLWKDLTLDQAYSYAVENAKDIIACGFDINKTFIFSDLDYMGMSSGFYKNVVKIQKHVTFNQVKGIFGFTDSDCIGKISFPAIQAAPSFSNSFPQIFRDRTDIQCLIPCAIDQDPYFRMTRDVAPRIGYPKPALLHSTFFPALQGAQTKMSASDPNSSIFLTDTAKQIKTKVNKHAFSGGRDTIEEHRQFGGNCDVDVSFMYLTFFLEDDDKLEQIRKDYTSGAMLTGELKKALIEVLQPLIAEHQARRKEVTDEIVKEFMTPRKLSFDFQ
notes: the entries describe two such monomers associating non-covalently into a dimer; also called T2-TrpRS product
In the case of B2, in data set [2], the binding result was “binds”.
